# Results as given in patent US20080293626A1 (Johns Hopkins, published 2008).
# Biological target: PEDF receptor (unidentified cell surface receptor on bovine retinal capillary endothelial cells)
# Assay: cell-based or functional assay
binder,measurement,value
VLLSPLSVATALSALSLGAEQRTESIIHRALYYDLISSPDIHGT [PEDF 44 AA peptide (residues 78-121 of human PEDF)],"inhibition of VEGF stimulated endothelial cell migration (BRCEC microchemotaxis chamber), IC50",3 nM
